Target: the molecule itself
Test: SEC; purified TtHPF without ribosome on Superdex200 Increase 10/300 in buffer F (20 mM Hepes/KOH pH 7.5, 100 mM KCl, 10% v/v glycerol, 1 mM DTT); elution volume compared to standard proteins

B1: Thermus thermophilus hibernation-promoting factor (TtHPF) (natural protein, UniProt Q5SIS0 1-186, looked up)
chain: MNIYKLIGRNLEITDAIRDYVEKKLARLDRYQDGELMAKVVLSLAGSPHVEKKARAEIQVDLPGGLVRVEEEDADLYAAIDRAVDRLETQVKRFRERRYVGKRHSYQGPPPPEVRDLEALRKPEEEEGPRIVRVKRFEMKPMDPEEAAFQMEALGHSFFVFRNAKTDEINVIYRRKDGNYGLIEPA
notes: Hibernation-promoting factor TtHPF of Thermus thermophilus, UniProt Q5SIS0; gene amplified from genomic DNA with primers from the start codon to the stop codon; residues 2-122 (NTD and linker) and 129-185 (CTD) were modelled in the cryo-EM maps; The forward primer encodes a TEV site (ENLYFQG) directly before Met1, so a Gly probably remains at the N-terminus after TEV cleavage (surmised); The …
stoichiometry N: 2
